Laboratory results published in US11407988B2, “Composition and uses thereof” (priority 2015, dated 2022).
Several values for one entry are separate records, joined by “and”; a condition that tells them apart may be missing. Equal values may be shown once. Read-outs that look alike come from different tables or passages of the source. Where a SMILES comes first, the peptide text is derived from it. [ ]: non-standard residue; d: D form. The star is where a group is joined. Sta = CC(C)C[C@H](N)[C@@H](O)CC(=O)O; Isovaleryl = CC(C)CC(=O)*

What was measured:
[1] = tested on: purified protease of Thermoactinomyces sp. 16 (protease 16); format: biochemical; conditions: for Inhibition of the enzyme (in words): 10 mM inhibitor
[2] = biological target: PrP^Sc, RML scrapie strain (Mus musculus, UniProt P04925); conditions: pH 7
[3] = tested on: BSA (1%, w/v); experiment: Effect of pH on protease activity of original and recombinant proteinase 16; format: biochemical; conditions: 0.1M Universal buffer, 30 min, 40 C
[4] = tested on: BSA (1%, w/v); experiment: Effect of pH and temperature on protease activity
[5] = biological target: PrP (PrP^C and PrP^Sc) in N2a22L20 lysate, 22 L scrapie strain (Mus musculus, UniProt P04925); conditions: pH 7
[6] = biological target: PrP (PrP^C and PrP^Sc) in GT22L lysate, 22 L scrapie strain (Mus musculus, UniProt P04925); conditions: pH 7
[7] = biological target: PrP (PrP^C and PrP^Sc) in GTK lysate, chandler scrapie isolate (Mus musculus, UniProt P04925); conditions: pH 7
[8] = biological target: pK resistant prion material (PrP^Sc) (Mus musculus, UniProt P04925)
[9] = biological target: PrP^Sc, BSE strain 301V (Mus musculus, UniProt P04925); conditions: pH 7
[10] = tested on: bovine serum albumin (BSA); experiment: Protease assay of purification steps of protease 16 (BSA, 0.1M CAPS pH 11.0, 40° C.); format: biochemical
Text: The secreted protease was purified from cell free supernatant by (NH4)2SO4 (0-60%) fractionation followed by affinity chromatography on Bacitricin-Sepharose 4B according to the quantities shown in Table 3 below.
The first step was ammonium sulphate (0-60%) fractionation. To express the final ammonium sulphate concentration as % ammonium sulphate saturation the Green and Hughes calculations were used. The precipitate obtained after fractionation was suspended in 0.02M HEPES buffer, pH 7.0 and was dialysed against water for 24 h. The second step used was affinity chromatography on bacitracin-Sepharose 4B using a modification of the method of Stepanov and Rudenskaya. Bacitracin-Sepharose 4B was equilibrated with 0.04M Tris/HCL, pH 7.9. Enzyme solution in 0.04M Tris/HCL pH 7.9 was applied to the column and the column was washed with the same buffer to remove all unbound protein. […] The propan-2-ol and NaCl were removed from the protease solution by dialysis.

[11] = 10 mM reagent, purified protease 16

For CC(C)CC(=O)N[C@H](C(=O)N[C@H](C(=O)N[C@@H](CC(C)C)[C@@H](O)CC(=O)N[C@@H](C)C(=O)N[C@@H](CC(C)C)[C@@H](O)CC(=O)O)C(C)C)C(C)C [Pepstatin] (Isovaleryl-VV[Sta]A[Sta]-OH), the “Residual protease activity (% of control, no reagent) (10 mM)” value [1] was 97.6 % of control, no reagent.

In the case of O=S(=O)(F)Cc1ccccc1 [Phenylmethylsulfonyl fluoride], the “Inhibition of the enzyme (in words)” value [1] is reported as “significantly inhibited” and the “Residual protease activity (% of control, no reagent) (10 mM)” value [1, 11] is reported as 5.4 % of control, no reagent.

With Cl.NCCc1ccc(S(=O)(=O)F)cc1 [Pefabloc] the “Inhibition of the enzyme (in words)” value [1] was “significantly inhibited” and the “Residual protease activity (% of control, no reagent) (10 mM)” value [1, 11] was 2.9 % of control, no reagent.

With CC(C)C[C@H](NC(=O)[C@@H](O)[C@H](N)Cc1ccccc1)C(=O)O [Bestatin] the “Residual protease activity (% of control, no reagent) (10 mM)” value [1] was 92.6 % of control, no reagent.

For O=C(O)CN(CCN(CC(=O)O)CC(=O)O)CC(=O)O [Ethylenediaminetetraacetic acid], the “Residual protease activity (% of control, no reagent) (10 mM)” value [1] was 99.6 % of control, no reagent.

CC(=O)N[C@@H](CC(C)C)C(=O)N[C@@H](CC(C)C)C(=O)N[C@H](C=O)CCCNC(=N)N [Leupeptin] was tested, and the “Residual protease activity (% of control, no reagent) (10 mM)” value [1] was 56.8 % of control, no reagent.

B1: recombinant Thermitase 16: protease 16 cloned and heterologously expressed in Lactococcus lactis strain MG1363 (L. lactis strain 16), heat activated (protein)
chain: YTPNDPYFSSRQYGPQKIQAPQAWDIAEGSGVKIAIVDTGVQSNHPDLAGKVVGGWDFVDNDSTPQDGNGHGTHCAGIAAAVTNNSTGIAGTAPKASILAVRVLDNSGSGTWTAVANGITYAADQGAKVISLSLGGTVGNSGLQQAVDYAWNKGSVVVAAAGNAGNTAPNYPAYYSNAIAVASTDQNDNKSSFSTYGSWVDVAAPGSSIYSTYPTSTYASLSGTSMATPHVAGVAGLLASQGRSASNIRAAIENTADKISGTGTYWAKGRVNAYKAVQY
With B1 the “Removal of RML prion strain as detected by western blot” value [2] was “remove all traces of the RML prion strain” and the “Activity levels of original versus recombinant protease at the same pHs” value [3] was “little difference in activity levels”.

B2: protease 16: Thermitase (serine alkaline protease, EC 3.4.21.66) secreted by Thermoactinomyces sp. 16; mature amino acid sequence SEQ ID NO: 1 (protein)
chain: YTPNDPYFSSRQYGPQKIQAPQAWDIAEGSGVKIAIVDTGVQSNHPDLAGKVVGGWDFVDNDSTPQDGNGHGTHCAGIAAAVTNNSTGIAGTAPKASILAVRVLDNSGSGTWTAVANGITYAADQGAKVISLSLGGTVGNSGLQQAVDYAWNKGSVVVAAAGNAGNTAPNYPAYYSNAIAVASTDQNDNKSSFSTYGSWVDVAAPGSSIYSTYPTSTYASLSGTSMATPHVAGVAGLLASQGRSASNIRAAIENTADKISGTGTYWAKGRVNAYKAVQY
modifications: Thermoactinomyces sp. 16
In the case of B2, the “pH of optimal activity” value ([4]; BSA in 0.1M Universal buffer, pHs 2.0-12.0) is reported as 11.0 and > 8.0, the “Temperature of optimal activity” value ([4]; assay at 20-90° C.) is reported as 50 °C and the “Activity at the assay pH of pH 7.0” value ([4]; pH 7.0) is reported as “retains significant activity”. The “Detectable PrP by western blot, antibody 7A12” value (shortened to “Detectable PrP by western blot”) [5] was “complete loss of detectable PrP”, the “PrP signal by western blot, antibodies 8H4, 11G5 and GE8” value [5] was “No signal” and the “Detectable PrP by western blot” value [6] was “complete loss of detectable PrP”. The “Detectable PrP by western blot” value [7] was “complete loss of detectable PrP”, the “Removal of RML prion strain as detected by western blot” value [2] was “remove all traces of the RML prion strain” and the Detectable prion signal [8] was “complete loss of detectable prion signal”. The “Time to degrade the prion” value [8] was no more than 15 min, the “Time to degrade 301V brain material” value [9] was no more than 15 min and the “Time to degrade 301V from mouse brain homogenate” value [9] was no more than 15 min. The “Specific activity (units/mg protein)” value ([10]; purification step: (NH4)2SO4 (0-60%) fractionation) was 0.79 units/mg protein, the “Specific activity (units/mg protein)” value ([10]; purification step: Bacitricin-Sepharose 4B) was 3.56 units/mg protein and the “Specific activity (units/mg protein)” value ([10]; purification step: Cell free supernatant) was 0.05 units/mg protein. For the same molecule, the “Activity levels of original versus recombinant protease at the same pHs” value [3] was “little difference in activity levels”.
